± gives the standard deviation.
Assay: protein stability index of a GFP-peptide fusion (GPS, HEK-293T) (PSI 1-6); higher = more stable
[1] = treatment: DMSO, c terminus: a fixed tail appended
[2] = treatment: MLN4924 1 uM, 8 h, c terminus: a fixed tail appended
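Further: 24-mer peptide tiles fused after GFP, lentivirally expressed, FACS-sorted into six equal bins by GFP/DsRed ratio, decoded by Illumina sequencing, PSI is the read-weighted mean bin number.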

| Sequence | protein stability index [1] | protein stability index [2] | protein stability index (treatment: DMSO, c terminus: native) | protein stability index (treatment: MLN4924 1 uM, 8 h, c terminus: native) |
| --- | --- | --- | --- | --- |
| PQYEFKEAAGSFTSSLAQPGAYYP [IRX6] | 3.37 ± 0.19 | 3.36 ± 0.24 |  |  |
| PRYITDVIDAEPFIRCSLQCRDLV [KLHL12] | 2.25 ± 0.57 | 2.26 ± 0.66 |  |  |
| PSAALTTMQLFSKQNPSRQEVTKL [FBXO28] | 4.16 ± 0.37 | 4.37 ± 0.23 |  |  |
| PSATRAKPGPQDTVERPFYDLWAS [NOP53] | 3.08 ± 0.37 | 3.24 ± 0.37 |  |  |
| PSCQETRDYAPPSRGYAYRDNGHS [RBMY1A1] | 4.18 ± 0.18 | 4.21 ± 0.21 |  |  |
| PSELRDLVTQQLPHLMPSNCGLEE [S100A14] | 2.71 ± 0.22 | 3.02 ± 0.18 |  |  |
| PSSPGRFTKETTQKNFNNLYGTKG [TRIM29] | 4.2 ± 0.27 | 4.37 ± 0.085 |  |  |
| PSVRKKAGSFSRRLIKRFSFKSKP [C2CD2L] | 3.34 ± 0.56 | 3.35 ± 0.31 |  |  |
| PTEQVNELVALIPHSDQRLRPQRT [TMEM106C] | 4.63 ± 0.12 | 4.75 ± 0.1 |  |  |
| PTRCLPGHKEEEDGEGAGPGEQGG [ESRRA] | 5.68 ± 0.3 | 5.38 ± 0.26 |  |  |
| PTVIRNVGLGTCSMFSRVGGIIAP [SLC22A15] | 2.34 ± 0.3 | 2.23 ± 0.47 |  |  |
| PTYKVMYKIVTAREWRCCPGHSGV [EMID1] | 2.5 ± 0.57 | 2.89 ± 0.75 |  |  |
| PVAAQFTSEGTTLSGVDLELVGSG [FCHO1] | 4.54 ± 0.17 | 4.57 ± 0.24 |  |  |
| PVLRPMDLMVEATPRRVFANAHTY [PPP2R2B] | 2.68 ± 0.17 | 2.82 ± 0.075 |  |  |
| PYDGNSSDPENWDRKLHSRPRKLY [BTBD10] | 3.35 ± 0.24 | 3.41 ± 0.34 |  |  |
| PYVCHAELNAIMNKNSTDVKGCSM [DCTD] | 3.41 ± 0.22 | 3.43 ± 0.33 |  |  |
| QAALQKQQEVVVAGSSLPTSSKVN [ACBD3] | 5.04 ± 0.18 | 5.03 ± 0.063 |  |  |
| QAALRAARLRHQELFRLRGIKAQV [NOP53] | 2.4 ± 0.19 | 2.86 ± 0.57 |  |  |
| QAGDYSMRVDLRAGDEAVFAQYDS [TNXB] | 4.43 ± 0.42 | 4.2 ± 0.096 |  |  |
| QAQIHGLPVPPTPGLLSLATTSAS [TFE3] | 3.86 ± 0.11 | 3.87 ± 0.18 |  |  |
| QDSFEAAGNSTSGSRAGASSFSDP [KCNA3] | 5.42 ± 0.31 | 5.35 ± 0.16 |  |  |
| QEDSGLRDHSVRVLISNHVTPFDH [AUP1] | 3.9 ± 0.12 | 3.67 ± 0.29 |  |  |
| QEGLLDRCVSFQARFAEKEELMLV [HDAC6] | 2.44 ± 0.34 | 2.52 ± 0.53 |  |  |

| Sequence | protein stability index [1] | protein stability index [2] | protein stability index (treatment: DMSO, c terminus: native) | protein stability index (treatment: MLN4924 1 uM, 8 h, c terminus: native) |
| --- | --- | --- | --- | --- |
| QELNELFKPVVAAQKISKGADPKS [ZC3H15] | 4.8 ± 0.13 | 4.92 ± 0.18 |  |  |
| QERQMLQALKFLPVPSAPVIDLAE [FSD1] | 3.47 ± 0.31 | 3.3 ± 0.25 |  |  |
| QGVEGDHCVTSDPATSPLVLAIPR [TRIM35] | 4.43 ± 0.27 | 4.66 ± 0.22 |  |  |
| QGVISQLEDTCKTIEECCRKQKQE [TRIM55] | 5.2 ± 0.29 | 5.34 ± 0.31 |  |  |
| QHGQLGTNTRRGSRAPCKVQGLEG [NEK8] | 4.18 ± 0.15 | 4.19 ± 0.19 |  |  |
| QHNLCRKCASDIFQASNPYLPTRG [TRIM55] | 2.29 ± 0.26 | 2.45 ± 0.22 |  |  |
| QKEQGLSDNILSPVMNGGVQTWTQ [PDZK1] | 2.84 ± 0.5 | 3.32 ± 0.71 |  |  |
| QLCGKTFLTLEKFTIHNYSHSRER [PLAGL1] | 2.15 ± 0.57 | 2.27 ± 0.27 |  |  |
| QLDWDELETNQQHFHALCHSLLVS [M1AP] | 2.3 ± 0.29 | 2.69 ± 0.45 |  |  |
| QLEEGLKDTDLARVRRFQVVEVTK [M1AP] | 4.06 ± 0.15 | 4.04 ± 0.32 |  |  |
| QLGDLHTCLMMDMKACQEDDVRLL [INTS3] | 3.41 ± 0.18 | 3.56 ± 0.19 |  |  |
| QMTNIGVYVSNMTDKLVTPGKYFS [IQUB] | 2.31 ± 0.5 | 2.49 ± 0.28 |  |  |
| QNHGQHLILSREASWAKPHYEFNL [LCOR] | 2.28 ± 0.23 | 2.51 ± 0.35 |  |  |
| QNKIRACGERLSLGLSRAQPVQSK [PDLIM7] | 3.92 ± 0.28 | 3.85 ± 0.2 |  |  |
| QNPRQVAQSEAEKKLKKDDKKKEL [ZC3H15] | 5.52 ± 0.22 | 5.58 ± 0.19 |  |  |
| QPPLTYKRFQTLISKMEPLEIPVE [CRY1] | 2.97 ± 0.39 | 2.79 ± 0.34 |  |  |
| QPPQSQAQVPPAAPHHHHHHSHSG [PLK2] | 4.71 ± 0.2 | 4.64 ± 0.13 |  |  |
| QPQALLVDGDQSKILISGLEPSTP [TNXB] | 4.73 ± 0.31 | 4.69 ± 0.23 |  |  |
| QPTIVEALLGYEMVQVACGASHVL [NEK8] | 2.75 ± 0.45 | 2.74 ± 0.7 |  |  |
| QQIQGLISSIEAQLSELRSEMECQ [KRT13] | 3.6 ± 0.14 | 3.44 ± 0.5 |  |  |
| QSFIIPLERYVASLMPLQKSISPW [DENND6A] | 2.25 ± 0.04 | 2.46 ± 0.56 |  |  |
| QVYKETRLFLDGEEEKEWAFEESK [AASDHPPT] | 4.56 ± 0.26 | 4.74 ± 0.15 |  |  |
| RAAAQQRRSFLNAHHRSGAQVFPE [GNAS] | 3.53 ± 0.12 | 3.5 ± 0.23 |  |  |

| Sequence | protein stability index [1] | protein stability index [2] | protein stability index (treatment: DMSO, c terminus: native) | protein stability index (treatment: MLN4924 1 uM, 8 h, c terminus: native) |
| --- | --- | --- | --- | --- |
| RAALISRRHLQFWKSHLKKVQKPL [RHOBTB1] | 2.22 ± 0.16 | 2.54 ± 0.34 |  |  |
| RAGGGGGGDYGLVTAGCGFGKDFR [PPTC7] | 3.33 ± 0.51 | 3.13 ± 0.21 |  |  |
| RAVVEAVHRLDLILCNKTAYQEVF [SMG5] | 2.92 ± 0.43 | 2.92 ± 0.85 |  |  |
| RCGVPDVAQFVLTEGNPRWEQTHL [MMP1] | 2.42 ± 0.4 | 2.3 ± 0.24 |  |  |
| RDCLVLNQGYLSEAGASLVDQKLE [PI4K2A] | 4.29 ± 0.28 | 4.54 ± 0.11 |  |  |
| RDDLDRLGVFLDYEAGVLAFYDVT [TRIM14] | 2.55 ± 0.31 | 2.06 ± 0.53 |  |  |
| RDLAARWKKLVLVDRNTRPGPQDP [ELOA2] | 3.38 ± 0.19 | 3.49 ± 0.23 |  |  |
| REAEKQNYLAEHCPPLHIPGSMSE [TNNI2] | 4.67 ± 0.25 | 4.72 ± 0.31 |  |  |
| REDDKLVVECVMKGVTSTRVYERA [FABP4] | 3.68 ± 0.38 | 4.09 ± 0.29 |  |  |
| REIARYLLEQGAQVNRRSAKGNTA [FEM1A] | 3.29 ± 0.12 | 3.54 ± 0.31 |  |  |
| RFCSEIKSSKYGEGHQAWIVGIVE [SEPHS2] | 2.23 ± 0.21 | 2.12 ± 0.37 |  |  |
| RGAPAVQQNIPSTLLQDHENQRLF [WAS] | 4.25 ± 0.2 | 4.29 ± 0.15 |  |  |
| RGGMGSGGLATGIAGGLAGMGGIQ [KRT18] | 3.61 ± 0.18 | 3.38 ± 0.23 |  |  |
| RGGRQKYKRRIDAENSPYLNPQLV [ESRRG] | 3.59 ± 0.25 | 3.93 ± 0.21 |  |  |
| RGHQNWVYSCAFSPDSSMLCSVGA [WSB1] | 2.07 ± 0.18 | 2.03 ± 0.23 |  |  |
| RGNLSILAAVLVEPKLHTPMYFFL [OR3A1] | 2.86 ± 0.46 | 3.06 ± 0.57 |  |  |
| RGTQYSSLDSLDGLSLTDESDSCV [PSD2] | 5.26 ± 0.22 | 5.3 ± 0.14 |  |  |
| RGTYEQDGRFEKRQGNPSWKKQQK [ZNF396] | 4.63 ± 0.34 | 4.72 ± 0.41 |  |  |
| RHQSIFKSNGFFHGISIPEPEDME [CDKL4] | 3.58 ± 0.27 | 3.87 ± 0.15 |  |  |
| RIFDIKDGKLLWEQELYNNFVYNS [WASL] | 2.15 ± 0.67 | 2.13 ± 0.62 |  |  |
| RIHERLVAGSLAGAIAQSSIYPME [SLC25A25] | 2.74 ± 0.52 | 2.56 ± 0.27 |  |  |
| RILLRMTLGREVMSPLQAMSSYTV [NLN] | 2.67 ± 1.1 | 2.45 ± 0.32 |  |  |
| RINLVAAIFSAPAFPAAVSSMKKF [PSD2] | 2.37 ± 0.46 | 2.27 ± 0.59 |  |  |

| Sequence | protein stability index [1] | protein stability index [2] | protein stability index (treatment: DMSO, c terminus: native) | protein stability index (treatment: MLN4924 1 uM, 8 h, c terminus: native) |
| --- | --- | --- | --- | --- |
| RIQTQKEQAKENENGELQKIILPR [ZC2HC1C] | 4.77 ± 0.21 | 4.51 ± 0.41 |  |  |
| RKISSLSFTLEEEEEGGEEEEEAA [FAM50A] | 5.53 ± 0.26 | 5.33 ± 0.26 |  |  |
| RKKSADVLALADEAGYYFFNGNYK [ADAMTSL2] | 3 ± 0.22 | 3.05 ± 0.33 |  |  |
| RKLLSPVSREENREDKATIKCETS [PPFIA4] | 5.11 ± 0.27 | 5.14 ± 0.26 |  |  |
| RKRNPSRKKQHICDECGKHFSQGS [ZNF24] | 3.91 ± 0.19 | 4.12 ± 0.097 |  |  |
| RKSLALDIVDEDVKLMMSTLPKSL [MYBL2] | 2.98 ± 0.27 | 2.76 ± 0.29 |  |  |
| RLCGGKGGFGSMLRALGAQIEKTT [SDE2] | 2.59 ± 0.23 | 2.55 ± 0.45 |  |  |
| RLIRELAEFEKLSDQVKISEEALR [SAT2] | 3.16 ± 0.35 | 3.43 ± 0.3 |  |  |
| RLKTRSWAGERSRRELCSRLQDQ [CDC25B] |  |  | 4.02 ± 0.17 | 4.13 ± 0.15 |
| RLVELAGQSLLKDEALAIAALELL [PRAME] | 2.17 ± 0.47 | 2.02 ± 0.44 |  |  |
| RMDFAAKLMKNIRFPLMTPQELIN [KLHL13] | 2.01 ± 0.31 | 1.94 ± 0.27 |  |  |
| RNARIVHLVEETRIHVLPSLNPDG [CPXM2] | 2.97 ± 0.037 | 3.2 ± 0.24 |  |  |
| RNQYEALVETNRREVEQWFATQTE [KRT33B] | 4.37 ± 0.28 | 4.27 ± 0.48 |  |  |
| RNTLNQPCSGSVSLQPRRSIAFRL [GMCL1] | 2.41 ± 0.29 | 2.36 ± 0.11 |  |  |
| RPALAQQAQGARAGGSARRPDTGD [GMCL1] | 5.28 ± 0.19 | 5.33 ± 0.13 |  |  |
| RPAQAIGTQPRATKHKCRQLTKAS [SPACA9] | 4.47 ± 0.16 | 4.44 ± 0.34 |  |  |
| RPGVQDAALIEAIQDRLSNTLQTY [VDR] | 2.78 ± 0.3 | 3.09 ± 0.28 |  |  |
| RPNLETYYERVLKRKTFNKVLGHV [GDAP1] | 2.46 ± 0.092 | 2.47 ± 0.32 |  |  |
| RPQPRGLLGWGYYLIMLPFRFTYY [FAF2] | 3.86 ± 0.18 | 3.48 ± 0.077 |  |  |
| RQHHHQSSFPGSLPQETNLTLKVC | 2.89 ± 0.48 | 3.34 ± 0.56 |  |  |

From the supplement of paper PMC10567573
